# Experimental data published in patent publication US20220017612A1 (TILOS THERAPEUTICS, published 2022).
# Several values for one entry are separate records, joined by “and”; a condition that tells them apart may be missing. Equal entries are not always repeated.
# T1: human LAP-TGFβ2 overexpressed on HT1080 cells (human, UniProt P61812 21-414)
# T1 construct: also called HT1080-huB2
# T1 sequence: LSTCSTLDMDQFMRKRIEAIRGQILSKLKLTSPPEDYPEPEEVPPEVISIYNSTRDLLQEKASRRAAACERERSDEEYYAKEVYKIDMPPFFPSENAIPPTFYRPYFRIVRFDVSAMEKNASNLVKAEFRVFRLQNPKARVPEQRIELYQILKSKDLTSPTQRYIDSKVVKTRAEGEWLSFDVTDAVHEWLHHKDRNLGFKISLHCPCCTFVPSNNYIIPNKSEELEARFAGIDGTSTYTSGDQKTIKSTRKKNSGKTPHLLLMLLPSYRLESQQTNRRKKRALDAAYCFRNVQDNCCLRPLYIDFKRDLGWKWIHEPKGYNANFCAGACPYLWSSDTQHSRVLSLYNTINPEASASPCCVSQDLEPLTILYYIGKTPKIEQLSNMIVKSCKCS
# T2: human LAP-TGFβ3 overexpressed on HT1080 cells (human, UniProt P10600 24-412)
# T2 construct: also called HT1080-huB3
# T2 sequence: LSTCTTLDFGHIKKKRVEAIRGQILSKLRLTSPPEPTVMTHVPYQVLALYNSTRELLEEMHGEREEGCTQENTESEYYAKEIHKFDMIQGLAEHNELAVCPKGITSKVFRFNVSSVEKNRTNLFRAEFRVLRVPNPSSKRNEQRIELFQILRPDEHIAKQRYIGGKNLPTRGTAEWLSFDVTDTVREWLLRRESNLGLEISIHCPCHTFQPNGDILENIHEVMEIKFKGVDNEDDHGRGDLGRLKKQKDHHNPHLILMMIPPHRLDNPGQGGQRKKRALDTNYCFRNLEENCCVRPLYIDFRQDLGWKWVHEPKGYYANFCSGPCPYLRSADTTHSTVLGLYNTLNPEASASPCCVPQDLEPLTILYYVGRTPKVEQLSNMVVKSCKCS
# B1: 17G8_hIgG1 (antibody, V domains shown)
# VH: EVKLVESGGGLVQPGGSLSLSCAASGFTFTDYYMSWVRQPPGKALEWLGFIRNKANGYTTEYSASVKGRFTISRDNSQSILYLQMNALRAEDSATYYCARYKLGGYFDVWGTGTTVTVSS
# VL: DIQMTQTTSSLSASLGDRVTISCRASQDISNYLNWYQQKPDGTVKLLIYYTSRLHSGVPSRFSGSGSGTDYSLTISNLEQEDIATYFCQQGNTLPWTFGGGTKLEIK
# B2: 24E3_hIgG1 (antibody, V domains shown)
# VH: QAYLQQSGAELVRPGASVKMSCKASGYTFTSYNMHWVKQTPRQGLEWIGAIYPGNGDTSYNPKFKGKATLTVDKSSSTAYMQLSSLTSEDSAVYFCTRWDWGGYFDVWGTGTTVTVSS
# VL: DIQMTQTTSSLSASLGDRVTISCRASQDISNYLNWYQQKPDGTVKLLIYYTSRLHSGVPSRFSGSGSGTDYSLTISNLEQEDIATYFCQQGDTLPWTFGGGTKLGIK
# B3: 28G11_H2L3 (antibody, human IgG1, kappa)
# heavy: not shown
# light: DIQMTQSPSSLSASVGDRLTISCRASQDISNYLNWYQQKPGKTVKLLIYYTSRLHSGVPSRFSGSGSGTDYTLTISSLQPEDVATYFCQQGDTLPWTFGQGTKLEIKRTVAAPSVFIFPPSDEQLKSGTASVVCLLNNFYPREAKVQWKVDNALQSGNSQESVTEQDSKDSTYSLSSTLTLSKADYEKHKVYACEVTHQGLSSPVTKSFNRGEC
# B4: 28G11_H2L2 (antibody, human IgG1, kappa)
# heavy: not shown
# light: DIQMTQSPSSLSASVGDRVTITCRASQDISNYLNWYQQKPGKTVKLLIYYTSRLHSGVPSRFSGSGSGTDYTLTISSLQPEDVATYFCQQGDTLPWTFGQGTKLEIKRTVAAPSVFIFPPSDEQLKSGTASVVCLLNNFYPREAKVQWKVDNALQSGNSQESVTEQDSKDSTYSLSSTLTLSKADYEKHKVYACEVTHQGLSSPVTKSFNRGEC
# B5: 28G11_H2L1 (antibody, human IgG1, kappa, V domains shown)
# VH: EVQLVESGGGLVQPGGSLRLSCAASGFTFTDYYMSWVRQAPGKGLEWLGFIRNKPNGYTTEYSASVKGRFTISRDNSQSSLYLQMNSLKTEDTAVYYCARYTGGGYFDYWGQGTLLTVSS
# VL: DIQMTQSPSSLSASVGDRVTITCRASQDISNYLNWYQQKPGKVPKLLIYYTSRLHSGVPSRFSGSGSGTDYTLTISSLQPEDVATYFCQQGDTLPWTFGQGTKLEIKR
# Experiments:
# [1] = target: T3, human LAP-TGFβ1 overexpressed on cells (human, UniProt P01137 30-390); test: cell-based or functional assay
# T3 sequence (P01137 30-390): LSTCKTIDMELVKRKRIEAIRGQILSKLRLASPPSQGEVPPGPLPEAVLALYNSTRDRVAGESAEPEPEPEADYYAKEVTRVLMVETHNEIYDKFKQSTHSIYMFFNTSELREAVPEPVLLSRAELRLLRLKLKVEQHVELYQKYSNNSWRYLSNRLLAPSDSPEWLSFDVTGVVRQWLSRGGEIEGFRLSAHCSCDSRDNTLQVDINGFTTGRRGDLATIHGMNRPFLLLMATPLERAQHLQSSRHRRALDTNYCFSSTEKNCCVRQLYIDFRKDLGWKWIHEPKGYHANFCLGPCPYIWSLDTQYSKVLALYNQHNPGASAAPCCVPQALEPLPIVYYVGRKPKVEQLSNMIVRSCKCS
# [2] = target: murine LAP-TGFβ1 overexpressed on cells (mouse, UniProt P04202 30-390); test: cell-based or functional assay
# Chain of murine LAP-TGFβ1 overexpressed on cells (P04202 30-390): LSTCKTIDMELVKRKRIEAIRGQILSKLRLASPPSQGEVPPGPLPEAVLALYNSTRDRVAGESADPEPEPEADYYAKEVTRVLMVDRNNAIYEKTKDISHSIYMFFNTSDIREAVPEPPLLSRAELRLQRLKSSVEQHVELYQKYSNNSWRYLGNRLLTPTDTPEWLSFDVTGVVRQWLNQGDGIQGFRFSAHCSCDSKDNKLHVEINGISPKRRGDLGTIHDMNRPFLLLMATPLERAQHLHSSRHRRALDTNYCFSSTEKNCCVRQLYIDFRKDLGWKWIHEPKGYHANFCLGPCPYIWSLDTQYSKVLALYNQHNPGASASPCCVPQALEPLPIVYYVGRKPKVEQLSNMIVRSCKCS
# [3] = target: T4, human GARP and human LAP-TGFβ1 co-expressed on P3U1 cells (human, UniProt Q14392 20-662); test: flow cytometry, P3U1 cells
# T4 construct: whole, on cells; also called P3U1 cells over-expressing human GARP and LAP-TGFβ1
# T4 sequence (chain, as listed by the source, chain 1 of 2): as the sequence (P01137 30-390) above
# T4 sequence (Q14392 20-662, chain 2 of 2): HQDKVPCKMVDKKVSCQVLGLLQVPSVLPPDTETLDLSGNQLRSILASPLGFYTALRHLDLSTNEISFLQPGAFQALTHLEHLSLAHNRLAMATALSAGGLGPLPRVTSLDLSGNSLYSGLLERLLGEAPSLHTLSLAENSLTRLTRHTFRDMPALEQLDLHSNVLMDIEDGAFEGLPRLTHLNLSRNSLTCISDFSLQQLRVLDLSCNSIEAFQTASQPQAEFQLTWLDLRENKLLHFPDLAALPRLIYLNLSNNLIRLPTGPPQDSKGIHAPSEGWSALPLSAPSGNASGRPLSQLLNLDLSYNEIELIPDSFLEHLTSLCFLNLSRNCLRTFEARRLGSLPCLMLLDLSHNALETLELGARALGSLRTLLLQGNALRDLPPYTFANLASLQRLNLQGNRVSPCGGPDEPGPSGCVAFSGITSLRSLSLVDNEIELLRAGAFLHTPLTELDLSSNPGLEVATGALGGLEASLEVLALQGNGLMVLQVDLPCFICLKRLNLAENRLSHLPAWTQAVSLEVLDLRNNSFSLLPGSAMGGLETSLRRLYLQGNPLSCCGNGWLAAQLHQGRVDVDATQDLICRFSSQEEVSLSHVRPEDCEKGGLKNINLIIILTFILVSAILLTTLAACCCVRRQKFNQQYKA
# Description: (§1) This Example describes the binding of anti-LAP antibodies to LAP-TGFβ isoforms and LAP-TGFβ variants. In addition to antibodies 28G11_hIgG1, 22F9_hIgG1, and 20E6_hIgG1, anti-LAP antibodies 17G8_hIgG1, 24E3_hIgG1, and 2C9_(hyb) were also tested in this experiment. Briefly, 4×10⁵ each of (a) HT1080 cells, (b) HT1080 cells overexpressing human LAP-TGFβ1, (c) HT1080 cells overexpressing human LAP-TGFβ2, (d) HT1080 cells overexpressing human LAP-TGFβ3, (e) HT1080 cells overexpressing murine LAP-TGFβ1, (f) P3U1 cells, (g) P3U1 cells overexpressing LAP-TGFβ1 and GARP, and (h) P3U1 cells overexpressing LAP-TGFβ1 and LRRC33 were cultured in 96-well plates. The plates were centrifuged for 5 min at 1,500 rpm, liquid was removed, and cells were resuspended with 200 μL FACS buffer. The plates were centrifuged again, diluted primary antibody was added to each well, and the plates were incubated on ice for 20 minutes, followed by centrifugation. The cells were resuspended in 200 μL FACS buffer, centrifuged again, and resuspended in 50 μL diluted secondary antibody (Alexa647-anti-Human IgG or APC-anti-Mouse IgG). The plates were incubated on ice for 20 minutes in the dark, washed twice with 200 μL FACS buffer, and cells from each well (in 200 μL FACS buffer) were read on the Attune NXT instrument.
# [4] = target: T1, human LAP-TGFβ2 overexpressed on HT1080 …; test: flow cytometry titration, HT1080-huB2 cells
# Description: as §1
# [5] = target: T5, human LAP-TGFβ1 with K27C and Y75C mutations on HT1080 cells (human, UniProt P01137 30-390); test: flow cytometry, HT1080 cells; grey bar = no anti-LAP antibody
# T5 construct: also called closed conformation
# T5 sequence (P01137 other isoform, or with tags, fused parts or gaps K27C Y75C K27C Y75C): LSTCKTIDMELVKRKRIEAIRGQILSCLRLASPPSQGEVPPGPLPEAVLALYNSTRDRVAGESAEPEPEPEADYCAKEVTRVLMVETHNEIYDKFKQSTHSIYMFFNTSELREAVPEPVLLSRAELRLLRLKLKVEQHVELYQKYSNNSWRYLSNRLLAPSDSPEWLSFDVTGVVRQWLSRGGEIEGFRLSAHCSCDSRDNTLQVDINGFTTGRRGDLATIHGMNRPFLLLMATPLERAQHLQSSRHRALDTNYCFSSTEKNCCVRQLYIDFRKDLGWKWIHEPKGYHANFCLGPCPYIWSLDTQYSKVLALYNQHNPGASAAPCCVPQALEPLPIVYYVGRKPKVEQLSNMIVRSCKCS
# Description: as §1
# (§2) Cells were processed for flow cytometry in the same manner described above for the isoform-specific binding experiments.
# [6] = target: T6, LAP-only variant of human TGFβ1 (empty LAP) on HT1080 cells (human, UniProt P01137 30-277); test: as above
# T6 construct: LAP without the mature cytokine; also called HT1080-emptyLAP; LAP-only construct
# T6 sequence (P01137 30-277, change not shown): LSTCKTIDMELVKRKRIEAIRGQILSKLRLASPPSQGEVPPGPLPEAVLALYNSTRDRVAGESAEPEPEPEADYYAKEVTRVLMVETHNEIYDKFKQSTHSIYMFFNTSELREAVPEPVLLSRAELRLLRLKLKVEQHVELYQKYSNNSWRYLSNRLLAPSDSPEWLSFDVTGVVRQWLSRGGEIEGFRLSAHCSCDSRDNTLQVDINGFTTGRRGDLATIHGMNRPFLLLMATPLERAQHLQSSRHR
# Description: as §1, §2
# [7] = target: T7, human-chicken LAP-TGFβ1 chimera #2.3 on HT1080 cells (human/chicken chimera, UniProt P01137 30-390); test: as above
# T7 construct: also called HT1080-ch2.3
# T7 sequence (P01137 other isoform, or with tags, fused parts or gaps mutant): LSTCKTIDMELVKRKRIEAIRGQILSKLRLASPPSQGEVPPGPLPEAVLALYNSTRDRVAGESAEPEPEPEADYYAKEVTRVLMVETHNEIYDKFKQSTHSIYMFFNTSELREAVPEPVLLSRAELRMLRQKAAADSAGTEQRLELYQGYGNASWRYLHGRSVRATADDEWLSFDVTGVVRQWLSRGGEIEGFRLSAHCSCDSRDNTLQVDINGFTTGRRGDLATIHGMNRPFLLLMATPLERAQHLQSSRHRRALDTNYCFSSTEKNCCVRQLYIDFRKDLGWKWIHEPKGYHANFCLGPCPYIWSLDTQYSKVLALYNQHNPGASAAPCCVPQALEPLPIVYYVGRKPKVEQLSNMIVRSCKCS
# Description: as §1, §2
# [8] = target: T8, human-chicken LAP-TGFβ1 chimera #2.2 on HT1080 cells (human/chicken chimera, UniProt P01137 30-390); test: as above
# T8 construct: also called HT1080-ch2.2
# T8 sequence (P01137 other isoform, or with tags, fused parts or gaps mutant): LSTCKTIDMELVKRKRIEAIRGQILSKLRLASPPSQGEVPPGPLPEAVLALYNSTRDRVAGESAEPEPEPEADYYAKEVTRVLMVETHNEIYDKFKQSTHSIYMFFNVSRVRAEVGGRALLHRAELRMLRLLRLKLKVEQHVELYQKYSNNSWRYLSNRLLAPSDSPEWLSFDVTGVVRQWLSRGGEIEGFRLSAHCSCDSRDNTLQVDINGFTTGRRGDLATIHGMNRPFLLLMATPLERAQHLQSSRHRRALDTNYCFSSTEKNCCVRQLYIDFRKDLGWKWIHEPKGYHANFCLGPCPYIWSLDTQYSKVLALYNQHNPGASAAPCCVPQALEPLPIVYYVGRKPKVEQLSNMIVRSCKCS
# Description: as §1, §2
# [9] = target: T9, human LAP-TGFβ1 with a Y74T mutation on HT1080 cells (human, UniProt P01137 30-390); test: as above
# T9 construct: also called HT1080-Y74T; open conformation
# T9 sequence (P01137 other isoform, or with tags, fused parts or gaps Y74T Y74T): as the sequence (P01137 other isoform, or with tags, fused parts or gaps K27C Y75C K27C Y75C) above, with C27K, Y74T, C75Y counted along it
# Description: as §1, §2
# [10] = target: T10, mature human TGFβ1 (free TGFβ1, without LAP) (human, UniProt P01137 279-390); test: TGFβ1 ELISA after pre-incubation of 1000 pg mature TGFβ1 with antibody; loss of signal reflects binding
# T10 construct: also called mature TGFβ; free human TGFβ1
# T10 sequence (P01137 279-390 limits assumed): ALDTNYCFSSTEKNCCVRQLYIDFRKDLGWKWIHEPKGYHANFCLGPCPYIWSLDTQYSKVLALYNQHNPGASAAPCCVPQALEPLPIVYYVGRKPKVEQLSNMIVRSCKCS
# Description: To determine whether anti-LAP antibodies 28G11_hIgG1, 22F9_hIgG1, 20E6_hIgG1, 17G8_hIgG1, and 24E3_hIgG1, bind to free human TGFβ1 (i.e., mature TGFβ1 that lacks LAP), the ability of the antibodies to inhibit an anti-TGFβ ELISA was evaluated. Briefly, mature TGFβ1 (1000 pg) was incubated with the indicated anti-LAP antibodies at 10 μg/mL, an isotype control antibody as a negative control or the commercially available anti-TGFβ antibody 1D11 as a positive control for 10 minutes on ice. For example, the 1D11 antibody is commercially available from any number of sellers, for example Bio x Cell Inc. (West Lebanon, N.H.). Supernatants were assayed in a TGFβ1 ELISA (R&D Systems) according to the manufacturer instructions to measure free TGFβ1. […] Note that Figure and FIG. are used interchangeably in this application.
# [11] = target: T2, human LAP-TGFβ3 overexpressed on HT1080 …; test: flow cytometry titration, HT1080-huB3 cells
# Description: as §1
# [12] = target: T4, human GARP and human LAP-TGFβ1 …; test: flow cytometry competition on P3U1 cells with human GARP and LAP-TGFβ1; competitor of biotin-28G11 (5 µg competitor, 0.31 µg biotin-28G11)
# Description: In the first experiment, the various humanized 28G11 candidates were tested for retention of binding to human LAP-TGFβ1 by competition with biotin-28G11 in a flow cytometry assay.
# P3U1 cells over-expressing human GARP and LAP-TGFβ1 were placed in a round-bottom 96-well plate at density of 40,000 cells/well. The cells were washed with FACS buffer (25 mM HEPES, 2 mM EDTA, 2% fetal bovine serum in Hank's Balanced Salt Solution). 50 μL of 1:200 diluted TruStain Mouse FcX (BioLegend) was added to each well, followed by 50 μL of 100 ng/μL of humanized 28G11 construct (H0L0, H0L1, H0L2, H0L3, HILO, H1L1, H1L2, H1L3, H2L0, H2L1, H2L2, H2L3). The antibody was allowed to bind for 10 minutes. 50 μL of 6.2 ng/μL of biotinylated murine hybridoma 28G11_(hyb) was added to each well. The biotinylated antibody was allowed to bind for 10 minutes, and then the cells were washed twice with FACS buffer. The cells were labeled for 15 minutes with allophytocyanin-streptavidin (BioLegend), washed twice with FACS buffer, and analyzed by flow cytometry.
# [13] = target: T3, human LAP-TGFβ1 overexpressed on cells; test: flow cytometry; black bar HT1080-huB1, grey bar HT1080
Binder,IC50 of inhibition of TGFβ1 activation [1],IC50 of inhibition of TGFβ1 activation [2],binding result [3],binding result [4],binding result [5],binding result [6],binding result [7],binding result [8],binding result [9],binding result [10],binding result [11],binding result [12],binding result [13]
B1,1 /ml (as printed) and 1.5 ug/ml,1.4 µg/mL and 0.59 µg/mL,binds,no binding (tested: about 800 ng/well),binds,no binding,binds,no binding,no binding,no binding (tested: 10 µg/mL),no binding (tested: about 800 ng/well),,
B2,2.5 µg/mL and 2.6 µg/mL,1.1 µg/mL and 0.76 µg/mL,binds,no binding (tested: about 800 ng/well),binds,no binding,binds,no binding,no binding,no binding (tested: 10 µg/mL),no binding (tested: about 800 ng/well),,
B3,,,,,,,,,,,,binds,binds
B4,,,,,,,,,,,,binds,
B5,,,,,,,,,,,,binds,
